# Experimental data taken from IntAct's records for PubMed 25910212.
# B1: Progranulin (Homo sapiens), P28799 (parent)
# chain: MWTLVSWVALTAGLVAGTRCPDGQFCPVACCLDPGGASYSCCRPLLDKWPTTLSRHLGGPCQVDAHCSAGHSCIFTVSGTSSCCPFPEAVACGDGHHCCPRGFHCSADGRSCFQRSGNNSVGAIQCPDSQFECPDFSTCCVMVDGSWGCCPMPQASCCEDRVHCCPHGAFCDLVHTRCITPTGTHPLAKKLPAQRTNRAVALSSSVMCPDARSRCPDGSTCCELPSGKYGCCPMPNATCCSDHLHCCPQDTVCDLIQSKCLSKENATTDLLTKLPAHTVGDVKCDMEVSCPDGYTCCRLQSGAWGCCPFTQAVCCEDHIHCCPAGFTCDTQKGTCEQGPHQVPWMEKAPAHLSLPDPQALKRDVPCDNVSSCPSSDTCCQLTSGEWGCCPIPEAVCCSDHQHCCPQGYTCVAEGQCQRGSEIVAGLEKMPARRASLSHPRDIGCDQHTSCPVGQTCCPSLGGSWACCQLPHAVCCEDRQHCCPAGYTCNVKARSCEKEVVSAQPATFLARSPHVGVKDVECGEGHFCHDNQTCCRDNRQGWACCPYRQGVCCADRRHCCPAGFRCAARGTKCLRREAPRWDAPLRDPALRQLL
# B2: U4/U6 small nuclear ribonucleoprotein Prp31 (Homo sapiens), Q8WWY3 (parent)
# chain: MSLADELLADLEEAAEEEEGGSYGEEEEEPAIEDVQEETQLDLSGDSVKTIAKLWDSKMFAEIMMKIEEYISKQAKASEVMGPVEAAPEYRVIVDANNLTVEIENELNIIHKFIRDKYSKRFPELESLVPNALDYIRTVKELGNSLDKCKNNENLQQILTNATIMVVSVTASTTQGQQLSEEELERLEEACDMALELNASKHRIYEYVESRMSFIAPNLSIIIGASTAAKIMGVAGGLTNLSKMPACNIMLLGAQRKTLSGFSSTSVLPHTGYIYHSDIVQSLPPDLRRKAARLVAAKCTLAARVDSFHESTEGKVGYELKDEIERKFDKWQEPPPVKQVKPLPAPLDGQRKKRGGRRYRKMKERLGLTEIRKQANRMSFGEIEEDAYQEDLGFSLGHLGKSGSGRVRQTQVNEATKARISKTLQRTLQKQSVVYGGKSTIRDRSSGTASSVAFTPLQGLEIVNPQAAEKKVAEANQKYFSSMAEFLKVKGEKSGLMST
# partner: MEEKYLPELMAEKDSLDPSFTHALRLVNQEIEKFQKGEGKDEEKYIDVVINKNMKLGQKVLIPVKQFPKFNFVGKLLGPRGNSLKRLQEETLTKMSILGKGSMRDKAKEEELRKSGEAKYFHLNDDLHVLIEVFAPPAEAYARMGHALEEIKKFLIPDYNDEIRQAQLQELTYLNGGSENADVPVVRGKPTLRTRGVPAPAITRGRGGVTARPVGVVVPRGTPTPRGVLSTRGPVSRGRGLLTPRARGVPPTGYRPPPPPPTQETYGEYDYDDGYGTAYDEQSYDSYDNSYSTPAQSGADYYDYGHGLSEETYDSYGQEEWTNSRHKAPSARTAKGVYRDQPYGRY
# B3: Caspase-10 (Homo sapiens), Q92851-4 (parent)
# chain: MKSQGQHWYSSSDKNCKVSFREKLLIIDSNLGVQDVENLKFLCIGLVPNKKLEKSSSASDVFEHLLAEDLLSEEDPFFLAELLYIIRQKKLLQHLNCTKEEVERLLPTRQRVSLFRNLLYELSEGIDSENLKDMIFLLKDSLPKTEMTSLSFLAFLEKQGKIDEDNLTCLEDLCKTVVPKLLRNIEKYKREKAIQIVTPPVDKEAESYQGEEELVSQTDVKTFLEALPQESWQNKHAGSNGNRATNGAPSLVSRGMQGASANTLNSETSTKRAAVYRMNRNHRGLCVIVNNHSFTSLKDRQGTHKDAEILSHVFQWLGFTVHIHNNVTKVEMEMVLQKQKCNPAHADGDCFVFCILTHGRFGAVYSSDEALIPIREIMSHFTALQCPRLAEKPKLFFIQACQGEEIQPSVSIEADALNPEQAPTSLQDSIPAEADFLLGLATVPGYVSFRHVEEGSWYIQSLCNHLKKLVPRHEDILSILTAVNDDVSRRVDKQGTKKQMPQPAFTLRKKLVFPVPLDALSL
# B4: U4/U6 small nuclear ribonucleoprotein Prp31 (Homo sapiens), Q8WWY3 (parent)
# chain: B2 chain
# partner: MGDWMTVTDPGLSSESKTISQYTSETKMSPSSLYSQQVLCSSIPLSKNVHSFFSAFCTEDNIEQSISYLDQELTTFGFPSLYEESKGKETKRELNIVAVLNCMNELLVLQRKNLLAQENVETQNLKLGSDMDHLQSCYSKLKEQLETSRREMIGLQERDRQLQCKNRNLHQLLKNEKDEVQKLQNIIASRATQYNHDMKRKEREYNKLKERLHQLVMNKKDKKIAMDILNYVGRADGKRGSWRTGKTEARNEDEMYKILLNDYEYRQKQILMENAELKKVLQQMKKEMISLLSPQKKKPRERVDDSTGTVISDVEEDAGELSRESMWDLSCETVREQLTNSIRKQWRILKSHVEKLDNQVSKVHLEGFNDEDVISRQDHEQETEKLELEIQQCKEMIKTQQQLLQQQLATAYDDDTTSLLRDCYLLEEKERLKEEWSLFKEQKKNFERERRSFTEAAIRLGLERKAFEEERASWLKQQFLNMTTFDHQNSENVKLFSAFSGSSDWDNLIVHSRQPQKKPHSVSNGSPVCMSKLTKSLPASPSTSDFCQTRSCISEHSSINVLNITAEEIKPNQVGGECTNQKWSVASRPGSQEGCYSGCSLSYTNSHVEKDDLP
# B5: U4/U6 small nuclear ribonucleoprotein Prp31 (Homo sapiens), Q8WWY3 (parent)
# chain: B2 chain
# B6: Zinc finger CCHC domain-containing protein 12 (Homo sapiens), Q6PEW1 (parent)
# chain: MASIIARVGNSRRLNAPLPPWAHSMLRSLGRSLGPIMASMADRNMKLFSGRVVPAQGEETFENWLTQVNGVLPDWNMSEEEKLKRLMKTLRGPAREVMRVLQATNPNLSVADFLRAMKLVFGESESSVTAHGKFFNTLQAQGEKASLYVIRLEVQLQNAIQAGIIAEKDANRTRLQQLLLGGELSRDLRLRLKDFLRMYANEQERLPNFLELIRMVREEEDWDDAFIKRKRPKRSESMVERAVSPVAFQGSPPIVIGSADCNVIEIDDTLDDSDEDVILVESQDPPLPSWGAPPLRDRARPQDEVLVIDSPHNSRAQFPSTSGGSGYKNNGPGEMRRARKRKHTIRCSYCGEEGHSKETCDNESDKAQVFENLIITLQELTHTEMERSRVAPGEYNDFSEPL
# B7: TERF1-interacting nuclear factor 2 (Homo sapiens), Q9BSI4 (parent)
# chain: MATPLVAGPAALRFAAAASWQVVRGRCVEHFPRVLEFLRSLRAVAPGLVRYRHHERLCMGLKAKVVVELILQGRPWAQVLKALNHHFPESGPIVRDPKATKQDLRKILEAQETFYQQVKQLSEAPVDLASKLQELEQEYGEPFLAAMEKLLFEYLCQLEKALPTPQAQQLQDVLSWMQPGVSITSSLAWRQYGVDMGWLLPECSVTDSVNLAEPMEQNPPQQQRLALHNPLPKAKPGTHLPQGPSSRTHPEPLAGRHFNLAPLGRRRVQSQWASTRGGHKERPTVMLFPFRNLGSPTQVISKPESKEEHAIYTADLAMGTRAASTGKSKSPCQTLGGRALKENPVDLPATEQKENCLDCYMDPLRLSLLPPRARKPVCPPSLCSSVITIGDLVLDSDEEENGQGEGKESLENYQKTKFDTLIPTLCEYLPPSGHGAIPVSSCDCRDSSRPL
# Variants of: B1
# Conditions: with hxa1_human HOXA1, P49639
# Sequence of hxa1_human HOXA1, P49639 (P49639 whole entry): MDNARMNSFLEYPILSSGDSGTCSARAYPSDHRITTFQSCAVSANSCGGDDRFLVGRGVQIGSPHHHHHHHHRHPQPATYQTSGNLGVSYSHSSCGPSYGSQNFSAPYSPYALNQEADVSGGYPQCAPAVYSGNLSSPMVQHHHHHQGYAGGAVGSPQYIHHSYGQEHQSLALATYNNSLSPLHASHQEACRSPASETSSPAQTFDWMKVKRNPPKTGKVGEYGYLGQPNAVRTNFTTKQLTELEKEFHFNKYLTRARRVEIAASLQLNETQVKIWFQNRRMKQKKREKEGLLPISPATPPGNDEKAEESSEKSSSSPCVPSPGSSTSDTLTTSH
row,Variant,effect of a mutation on the interaction
1,P248L,with no effect
2,R432C,disrupting interaction strength
3,P451L,with no effect

# Variants of: B1
# Conditions: with ARFGAP1, Q8N6T3-3
# Sequence of ARFGAP1, Q8N6T3-3 (Q8N6T3 other isoform, or with tags, fused parts or gaps): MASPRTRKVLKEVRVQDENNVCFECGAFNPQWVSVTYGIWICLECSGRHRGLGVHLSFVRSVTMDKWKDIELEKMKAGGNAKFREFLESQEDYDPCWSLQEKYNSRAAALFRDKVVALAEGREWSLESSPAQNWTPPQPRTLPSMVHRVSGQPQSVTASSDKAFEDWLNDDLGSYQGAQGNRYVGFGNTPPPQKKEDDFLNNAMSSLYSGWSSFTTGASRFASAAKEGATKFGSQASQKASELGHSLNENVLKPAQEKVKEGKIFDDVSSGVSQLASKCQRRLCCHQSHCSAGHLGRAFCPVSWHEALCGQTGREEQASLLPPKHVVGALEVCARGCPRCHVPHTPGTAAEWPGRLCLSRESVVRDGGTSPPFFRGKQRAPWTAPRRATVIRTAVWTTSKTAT
row,Variant,effect of a mutation on the interaction
1,P248L,with no effect
2,R432C,disrupting interaction strength
3,P451L,disrupting interaction strength

# Variants of: B1
# Conditions: with sgta_human SGTA
row,Variant,effect of a mutation on the interaction
1,P248L,with no effect
2,R432C,disrupting interaction strength
3,P451L,with no effect

# Variants of: B1
# Conditions: with otx1_human OTX1, P32242
# Sequence of otx1_human OTX1, P32242 (P32242 whole entry): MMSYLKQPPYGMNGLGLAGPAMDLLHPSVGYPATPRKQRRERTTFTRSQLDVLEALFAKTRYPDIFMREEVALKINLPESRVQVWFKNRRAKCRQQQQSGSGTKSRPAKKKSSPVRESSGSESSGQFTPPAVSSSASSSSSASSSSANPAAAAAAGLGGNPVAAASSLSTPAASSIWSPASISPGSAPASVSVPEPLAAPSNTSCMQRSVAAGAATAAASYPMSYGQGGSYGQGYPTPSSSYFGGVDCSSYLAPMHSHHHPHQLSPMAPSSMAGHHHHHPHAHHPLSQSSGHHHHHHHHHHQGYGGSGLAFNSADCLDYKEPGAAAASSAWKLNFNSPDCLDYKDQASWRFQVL
row,Variant,effect of a mutation on the interaction
1,P248L,with no effect
2,R432C,with no effect
3,P451L,with no effect

# Variants of: B1
# Conditions: with ccd33_human CCDC33, Q8N5R6
# Target sequence in this assay (Q8N5R6 whole entry): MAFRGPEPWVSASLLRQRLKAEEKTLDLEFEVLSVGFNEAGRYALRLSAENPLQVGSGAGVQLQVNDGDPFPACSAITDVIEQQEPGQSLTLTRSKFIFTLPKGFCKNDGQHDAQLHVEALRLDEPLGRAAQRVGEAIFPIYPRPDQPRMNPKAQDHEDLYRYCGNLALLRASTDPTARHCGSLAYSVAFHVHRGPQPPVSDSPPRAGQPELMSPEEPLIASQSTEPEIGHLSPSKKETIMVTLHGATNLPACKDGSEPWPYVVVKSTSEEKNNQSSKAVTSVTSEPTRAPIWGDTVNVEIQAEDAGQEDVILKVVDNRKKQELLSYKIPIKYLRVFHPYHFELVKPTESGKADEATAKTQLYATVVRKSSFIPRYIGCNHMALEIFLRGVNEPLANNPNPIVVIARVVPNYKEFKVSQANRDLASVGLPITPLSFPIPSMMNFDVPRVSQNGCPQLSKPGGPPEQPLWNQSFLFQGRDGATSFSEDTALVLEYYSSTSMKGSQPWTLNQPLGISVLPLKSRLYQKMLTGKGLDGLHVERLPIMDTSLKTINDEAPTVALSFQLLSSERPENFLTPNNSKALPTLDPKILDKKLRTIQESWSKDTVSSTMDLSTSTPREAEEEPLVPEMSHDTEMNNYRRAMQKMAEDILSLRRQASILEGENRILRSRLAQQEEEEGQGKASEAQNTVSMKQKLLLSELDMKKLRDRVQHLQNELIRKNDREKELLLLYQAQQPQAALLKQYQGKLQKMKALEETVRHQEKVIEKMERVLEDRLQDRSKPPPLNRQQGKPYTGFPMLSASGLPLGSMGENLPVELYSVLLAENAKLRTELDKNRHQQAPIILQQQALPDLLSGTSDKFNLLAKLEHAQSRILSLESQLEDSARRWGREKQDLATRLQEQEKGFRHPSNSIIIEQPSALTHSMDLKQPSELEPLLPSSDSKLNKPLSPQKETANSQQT
row,Variant,effect of a mutation on the interaction
1,P248L,with no effect
2,R432C,disrupting interaction strength
3,P451L,disrupting interaction strength

# Variants of: B2
# Conditions: with khdr3_human KHDRBS3, O75525
row,Variant,effect of a mutation on the interaction
1,L107V,with no effect

# Variants of: B3
# Conditions: with xiap_human XIAP
row,Variant,effect of a mutation on the interaction
1,P501L,disrupting interaction strength
2,V410I,disrupting interaction strength

# Variants of: B4
# Conditions: with adip_human SSX2IP
row,Variant,effect of a mutation on the interaction
1,L107V,with no effect

# Variants of: B5
# Conditions: with pnma1_human PNMA1, Q8ND90
# Target sequence in this assay (Q8ND90 whole entry): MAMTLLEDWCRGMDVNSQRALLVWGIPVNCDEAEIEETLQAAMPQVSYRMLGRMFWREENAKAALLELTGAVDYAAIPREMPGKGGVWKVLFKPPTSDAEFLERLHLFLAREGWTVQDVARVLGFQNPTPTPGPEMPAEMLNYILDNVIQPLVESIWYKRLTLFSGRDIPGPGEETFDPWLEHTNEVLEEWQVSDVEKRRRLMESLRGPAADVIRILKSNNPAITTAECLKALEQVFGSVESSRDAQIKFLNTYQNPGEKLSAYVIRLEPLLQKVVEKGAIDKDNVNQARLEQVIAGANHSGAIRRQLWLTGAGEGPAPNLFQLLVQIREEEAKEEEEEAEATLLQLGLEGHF
row,Variant,effect of a mutation on the interaction
1,L107V,with no effect

# Variants of: B5
# Conditions: with lzts2_human LZTS2, Q9BRK4
row,Variant,effect of a mutation on the interaction
1,L107V,with no effect

# Variants of: B5
# Conditions: with pak5_human PAK5, Q9P286
# Sequence of pak5_human PAK5, Q9P286 (Q9P286 whole entry, looked up): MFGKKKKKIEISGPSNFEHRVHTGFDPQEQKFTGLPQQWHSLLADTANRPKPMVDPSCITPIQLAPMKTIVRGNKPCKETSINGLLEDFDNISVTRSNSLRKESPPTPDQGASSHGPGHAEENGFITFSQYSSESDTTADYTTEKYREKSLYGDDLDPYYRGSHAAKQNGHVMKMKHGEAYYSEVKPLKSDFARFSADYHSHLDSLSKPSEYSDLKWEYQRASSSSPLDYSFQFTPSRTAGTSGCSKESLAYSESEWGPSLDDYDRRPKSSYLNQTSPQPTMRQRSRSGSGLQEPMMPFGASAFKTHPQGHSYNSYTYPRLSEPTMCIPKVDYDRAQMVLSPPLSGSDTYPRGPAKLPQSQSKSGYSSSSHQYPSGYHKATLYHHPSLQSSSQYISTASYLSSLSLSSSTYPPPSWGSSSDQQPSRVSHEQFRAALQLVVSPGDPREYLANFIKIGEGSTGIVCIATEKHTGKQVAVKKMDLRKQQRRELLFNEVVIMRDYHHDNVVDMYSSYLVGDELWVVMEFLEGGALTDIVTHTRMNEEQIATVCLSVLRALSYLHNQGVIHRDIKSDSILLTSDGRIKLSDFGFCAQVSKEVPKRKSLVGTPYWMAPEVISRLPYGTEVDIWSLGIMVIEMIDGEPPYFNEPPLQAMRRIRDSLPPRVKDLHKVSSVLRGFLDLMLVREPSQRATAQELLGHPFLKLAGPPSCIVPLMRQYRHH
row,Variant,effect of a mutation on the interaction
1,L107V,with no effect

# Variants of: B5
# Conditions: with myome_human PDE4DIP
row,Variant,effect of a mutation on the interaction
1,L107V,with no effect

# Variants of: B5
# Conditions: with tsg10_human TSGA10, Q9BZW7
row,Variant,effect of a mutation on the interaction
1,L107V,with no effect

# Variants of: B5
# Conditions: with ppip1_human PSTPIP1, O43586
row,Variant,effect of a mutation on the interaction
1,L107V,with no effect

# Variants of: B5
# Conditions: with fbln4_human EFEMP2, O95967
# Sequence of fbln4_human EFEMP2, O95967 (O95967 whole entry): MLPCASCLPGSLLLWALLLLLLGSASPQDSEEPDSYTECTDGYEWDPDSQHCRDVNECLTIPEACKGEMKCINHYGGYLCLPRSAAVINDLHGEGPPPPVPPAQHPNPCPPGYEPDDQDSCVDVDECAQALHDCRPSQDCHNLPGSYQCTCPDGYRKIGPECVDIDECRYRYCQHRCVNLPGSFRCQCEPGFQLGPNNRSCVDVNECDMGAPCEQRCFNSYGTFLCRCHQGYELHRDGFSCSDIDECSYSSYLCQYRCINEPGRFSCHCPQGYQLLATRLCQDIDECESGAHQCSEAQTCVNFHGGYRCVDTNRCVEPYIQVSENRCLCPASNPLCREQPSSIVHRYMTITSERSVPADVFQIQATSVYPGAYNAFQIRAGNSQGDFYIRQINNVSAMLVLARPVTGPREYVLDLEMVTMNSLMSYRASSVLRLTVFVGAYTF
row,Variant,effect of a mutation on the interaction
1,L107V,with no effect

# Variants of: B5
# Conditions: with ldoc1_human LDOC1, O95751
row,Variant,effect of a mutation on the interaction
1,L107V,with no effect

# Variants of: B5
# Conditions: with znf24_human ZNF24, P17028
row,Variant,effect of a mutation on the interaction
1,L107V,with no effect

# Variants of: B5
# Conditions: with KRT15, P19012
row,Variant,effect of a mutation on the interaction
1,L107V,with no effect

# Variants of: B5
# Conditions: with rbmx_human RBMX
row,Variant,effect of a mutation on the interaction
1,L107V,with no effect

# Variants of: B5
# Conditions: with HNRNPK
row,Variant,effect of a mutation on the interaction
1,L107V,with no effect

# Variants of: B5
# Conditions: with mdfi_human MDFI
row,Variant,effect of a mutation on the interaction
1,L107V,with no effect

# Variants of: B5
# Conditions: with ZNF250, P15622-3
row,Variant,effect of a mutation on the interaction
1,L107V,with no effect

# Variants of: B5
# Conditions: with zn587_human ZNF587, Q96SQ5
row,Variant,effect of a mutation on the interaction
1,L107V,with no effect

# Variants of: B5
# Conditions: with KRT40, Q6A162
# Sequence of KRT40, Q6A162 (Q6A162 whole entry): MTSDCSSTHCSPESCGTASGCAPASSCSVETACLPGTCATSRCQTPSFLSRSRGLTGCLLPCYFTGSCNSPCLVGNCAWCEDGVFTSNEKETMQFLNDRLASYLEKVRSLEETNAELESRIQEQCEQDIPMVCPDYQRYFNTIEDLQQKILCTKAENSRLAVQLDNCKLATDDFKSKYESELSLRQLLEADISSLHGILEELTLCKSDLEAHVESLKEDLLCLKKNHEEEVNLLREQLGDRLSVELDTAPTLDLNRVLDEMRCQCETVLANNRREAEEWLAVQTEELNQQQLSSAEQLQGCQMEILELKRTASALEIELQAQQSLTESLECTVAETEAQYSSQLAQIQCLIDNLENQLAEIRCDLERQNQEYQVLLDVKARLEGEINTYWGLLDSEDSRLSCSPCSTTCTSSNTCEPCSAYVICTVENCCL
row,Variant,effect of a mutation on the interaction
1,L107V,with no effect

# Variants of: B5
# Conditions: with nt2na_human NOTCH2NLA
row,Variant,effect of a mutation on the interaction
1,L107V,with no effect

# Variants of: B5
# Conditions: with tfp11_human TFIP11, Q9UBB9
row,Variant,effect of a mutation on the interaction
1,L107V,with no effect

# Variants of: B5
# Conditions: with goga2_human GOLGA2, Q08379
row,Variant,effect of a mutation on the interaction
1,L107V,with no effect

# Variants of: B5
# Conditions: with jkip2_human JAKMIP2, Q96AA8
row,Variant,effect of a mutation on the interaction
1,L107V,with no effect

# Variants of: B5
# Conditions: with ccd33_human CCDC33, Q8N5R6
# Target sequence in this assay (Q8N5R6 whole entry): as the sequence (Q8N5R6 whole entry) above
row,Variant,effect of a mutation on the interaction
1,L107V,with no effect

# Variants of: B5
# Conditions: with zn417_human ZNF417, Q8TAU3
row,Variant,effect of a mutation on the interaction
1,L107V,with no effect

# Variants of: B5
# Conditions: with MTUS2, Q5JR59-3
# Sequence of MTUS2, Q5JR59-3 (Q5JR59 other isoform, or with tags, fused parts or gaps): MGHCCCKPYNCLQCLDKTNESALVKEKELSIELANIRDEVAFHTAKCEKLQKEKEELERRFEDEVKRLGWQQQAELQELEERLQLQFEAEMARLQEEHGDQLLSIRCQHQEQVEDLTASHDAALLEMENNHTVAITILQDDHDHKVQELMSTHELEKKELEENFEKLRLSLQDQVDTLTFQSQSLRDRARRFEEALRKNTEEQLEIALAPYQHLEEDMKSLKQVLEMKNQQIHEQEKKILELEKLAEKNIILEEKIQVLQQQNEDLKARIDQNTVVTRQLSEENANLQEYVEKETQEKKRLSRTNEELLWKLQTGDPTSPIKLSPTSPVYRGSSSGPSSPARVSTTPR
row,Variant,effect of a mutation on the interaction
1,L107V,with no effect

# Variants of: B6
# Conditions: with pnma1_human PNMA1, Q8ND90
# Target sequence in this assay (Q8ND90 whole entry): as the sequence (Q8ND90 whole entry) above
row,Variant,effect of a mutation on the interaction
1,R7C,with no effect
2,T344I,with no effect

# Variants of: B6
# Conditions: with tfcp2_human TFCP2, Q12800
# Sequence of tfcp2_human TFCP2, Q12800 (Q12800 whole entry): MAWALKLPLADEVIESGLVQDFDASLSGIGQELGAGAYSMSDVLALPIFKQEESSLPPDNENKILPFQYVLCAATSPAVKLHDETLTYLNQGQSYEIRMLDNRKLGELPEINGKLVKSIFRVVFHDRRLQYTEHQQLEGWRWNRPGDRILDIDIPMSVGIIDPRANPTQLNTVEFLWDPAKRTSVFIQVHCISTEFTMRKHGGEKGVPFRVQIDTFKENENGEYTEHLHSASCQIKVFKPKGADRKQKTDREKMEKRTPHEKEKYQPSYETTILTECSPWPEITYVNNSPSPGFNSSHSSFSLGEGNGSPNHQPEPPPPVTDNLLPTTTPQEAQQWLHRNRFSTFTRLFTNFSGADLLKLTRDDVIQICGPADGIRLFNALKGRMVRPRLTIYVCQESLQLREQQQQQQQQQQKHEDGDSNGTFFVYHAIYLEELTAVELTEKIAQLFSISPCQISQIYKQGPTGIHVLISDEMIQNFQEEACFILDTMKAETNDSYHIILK
row,Variant,effect of a mutation on the interaction
1,R7C,with no effect
2,T344I,with no effect

# Variants of: B7
# Conditions: with acd_human ACD
row,Variant,effect of a mutation on the interaction
1,E281K,with no effect
